Data reported in patent US20210253716A1 (Regeneron, published 2021).
Positions count from the first letter of the chain named. One block for each binder: values may come before it.

What was measured:
[1] = target: T1, full length human ACVR1 (R206H) on HEK293/BRE-luc/hACVR1-R206H-clone H2 cells (human, UniProt Q04771 21-509); assay: cell-based or functional assay
T1 sequence: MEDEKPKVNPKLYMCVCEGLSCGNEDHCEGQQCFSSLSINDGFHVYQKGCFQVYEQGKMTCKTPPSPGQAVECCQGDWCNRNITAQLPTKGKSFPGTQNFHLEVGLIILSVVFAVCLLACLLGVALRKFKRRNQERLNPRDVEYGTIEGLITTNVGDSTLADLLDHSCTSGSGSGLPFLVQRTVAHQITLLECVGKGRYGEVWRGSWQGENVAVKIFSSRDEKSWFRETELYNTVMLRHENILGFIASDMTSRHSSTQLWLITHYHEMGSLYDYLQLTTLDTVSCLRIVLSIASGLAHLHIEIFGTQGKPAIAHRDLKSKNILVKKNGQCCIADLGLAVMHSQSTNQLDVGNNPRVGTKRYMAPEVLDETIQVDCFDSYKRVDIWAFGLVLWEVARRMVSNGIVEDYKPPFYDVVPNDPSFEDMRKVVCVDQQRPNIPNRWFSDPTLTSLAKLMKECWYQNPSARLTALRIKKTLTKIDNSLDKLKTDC

[2] = target: T2, human ACVR1 extracellular domain expressed with a C-terminal myc-myc-hexahistidine tag (human); assay: SPR (Biacore), mAb captured, 25 C
T2 construct: also called hACVR1-MMH
T2 chain: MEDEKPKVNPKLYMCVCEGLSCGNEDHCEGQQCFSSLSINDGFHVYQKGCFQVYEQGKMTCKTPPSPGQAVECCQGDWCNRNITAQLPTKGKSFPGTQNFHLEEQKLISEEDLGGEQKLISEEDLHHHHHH
Procedure: (§1) Equilibrium dissociation constants (KD) for ACVR1 binding to purified anti-ACVR1 monoclonal antibodies were determined using a real-time surface plasmon resonance biosensor (SPR-Biacore), Biacore 4000. All binding studies were performed in 10 mM HEPES, 150 mM NaCl, 3 mM EDTA, and 0.05% v/v surfactant Tween-20, pH 7.4 (HBS-ET) running buffer at 25° C. and 37° C. The Biacore CM5 sensor surface was first derivatized by amine coupling with a monoclonal mouse anti-human Fc antibody (GE, #BR-1008-39 or REGN2567) to capture anti-ACVR1 monoclonal antibodies. […] ACVR1 reagents were then injected over anti-human Fc captured anti-ACVR1 monoclonal antibody surface for 2.5-3 minutes at a flow rate of 30 μL/minute, while the dissociation of monoclonal antibody bound ACVR1 reagent was monitored for 10-15 minutes in HBS-ET running buffer. Kinetic association rate constant (kₐ) and dissociation rate constant (kd) were determined by fitting the real-time sensorgrams to a 1:1 binding model using Scrubber 2.0c curve-fitting software. Binding dissociation equilibrium constants (KD) and dissociative half-lives (t½) were calculated from the kinetic rate constants as: […]

[3] = target: T3, human ACVR1 extracellular domain expressed with a C-terminal mouse IgG2a Fc tag (human); assay: SPR (Biacore), mAb captured, 25 C
T3 construct: also called hACVR1-mFc
T3 chain: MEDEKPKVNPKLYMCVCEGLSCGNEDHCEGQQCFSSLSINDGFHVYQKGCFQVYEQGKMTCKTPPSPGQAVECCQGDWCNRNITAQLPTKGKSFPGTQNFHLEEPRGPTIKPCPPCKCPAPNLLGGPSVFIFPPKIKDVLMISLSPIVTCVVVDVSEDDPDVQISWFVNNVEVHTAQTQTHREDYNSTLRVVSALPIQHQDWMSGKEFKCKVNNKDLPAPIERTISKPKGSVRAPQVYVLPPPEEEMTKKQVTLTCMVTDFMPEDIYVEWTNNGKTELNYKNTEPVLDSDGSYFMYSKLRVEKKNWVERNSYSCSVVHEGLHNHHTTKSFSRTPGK
Procedure: as §1

[4] = target: T2, human ACVR1 extracellular domain …; assay: SPR (Biacore), mAb captured, 37 C
Procedure: as §1

[5] = target: T3, human ACVR1 extracellular domain …; assay: SPR (Biacore), mAb captured, 37 C
Procedure: as §1

[6] = target: T1, full length human ACVR1 (R206H) on …; assay: flow cytometry, 70 nM antibody, HEK293/hACVR1-R206H cells
Procedure: Cells were fixed using BD CytoFix™ (Becton Dickinson, #554655) and analyzed on either Hypercyt® or IQue® Flow Cytometers (Intellicyt®). Unstained and secondary antibody alone controls were also tested for all cell lines. The results were analyzed using ForeCyt® (IntelliCyt®) software to determine the geometric means of fluorescence for viable cells and binding ratios were calculated by normalizing the geometric mean value of the test condition by the geometric mean value of the corresponding unstained cells.

[7] = target: T4, mouse ACVR1 extracellular domain expressed with a C-terminal myc-myc-hexahistidine tag (mouse); assay: SPR (Biacore), mAb captured, 25 C
T4 construct: also called mACVR1-MMH; mACVR1-mmh
T4 chain: T2 chain with M1V, P10Q
Procedure: as §1

[8] = target: T4, mouse ACVR1 extracellular domain …; assay: SPR (Biacore), mAb captured, 37 C
Procedure: as §1

B2: mAb27247 (antibody, human IgG4 S228P, kappa, V domains shown)
VH: EIQLVESGGDLVQPGGSLKLSCAASGFTFSDSAMHWVRQASGKGLEWVGRIRNKANTYATSYAASVKGRFTVSTDDSKTTAYLQMRYLKIEDTAIYYCTSDQFDYWGQGTLVTVSS
VL: DVVMTQSPLSLSATLGQPASISCRSSQSLVYSDGITYLTWFQQRPGQSPTRLIYQVSNRDSGVPDRFNGSGSGTDFTLNISRVEAEDVGFYYCMEGTHWPWTFGQGTKVELKR
notes: also called H4H27247
900 nM or 100 nM Ag Bound (RU) [2]: 52 RU | Kd [2]: 10.4 nM | koff [2]: 0.00119 s⁻¹ | kon [2]: 115000 M⁻¹ s⁻¹ | t½ [2]: 10 min | 100 nM Ag Bound (RU) [3]: 186 RU | Kd [3]: 0.787 nM | koff [3]: 0.00018 s⁻¹ | kon [3]: 229000 M⁻¹ s⁻¹ | t½ [3]: 64 min | 900 nM or 100 nM Ag Bound (RU) [7]: 3 RU | binding result [7]: no binding (tested: 900 nM or 100 nM) | 900 nM or 100 nM Ag Bound (RU) [4]: 67 RU | Kd [4]: 19.3 nM | koff [4]: 0.00404 s⁻¹ | kon [4]: 209000 M⁻¹ s⁻¹ | t½ [4]: 2.9 min | 100 nM Ag Bound (RU) [5]: 219 RU | Kd [5]: 1.39 nM | koff [5]: 0.000515 s⁻¹ | kon [5]: 371000 M⁻¹ s⁻¹ | t½ [5]: 22 min | 900 nM or 100 nM Ag Bound (RU) [8]: 4 RU | MFI - Normalized to Unstained Control [6]: 1660 fold

B3: mAb29233 (antibody, human IgG4 S228P, kappa, V domains shown)
VH: QVQLVQSGAEVKKPGASVKVSCKASGYTFTSYGISWVRQAPGQGLEWMGWISAYNGNTIYAQKFQGRVTMTTDTSTSTAYMELRSLRSDDTAVYYCARDINWYFDLWGRGTLVTVSS
VL: DIQMTQSPSSLSASVGDRVTITCRASQGIRNDLGWFQQKPGKAPKRLIYAASSLQSGVPSRFSGSGSGTEFTLTISSLQPEDFATYYCLQHNSYPWTFGQGTKVEIKR
900 nM or 100 nM Ag Bound (RU) [2]: 1 RU | binding result [2]: no binding (tested: 900 nM or 100 nM) | 100 nM Ag Bound (RU) [3]: 2 RU | binding result [3]: no binding (tested: 100 nM) | 900 nM or 100 nM Ag Bound (RU) [7]: 1 RU | binding result [7]: no binding (tested: 900 nM or 100 nM) | 900 nM or 100 nM Ag Bound (RU) [4]: 3 RU | 100 nM Ag Bound (RU) [5]: 3 RU | 900 nM or 100 nM Ag Bound (RU) [8]: 1 RU | MFI - Normalized to Unstained Control [6]: 5 fold

B5: mAb29226 (antibody, human IgG4 S228P, kappa, V domains shown)
VH: EVQLVESGGGLVQPGRSLRLSCAASGFTFDDYGMHWVRQAPGKGLEWVSVISWNSATIDYADSVKGRFTISRDNAKNSLFLQMNSLRPEDTALYYCAKKNSLGWFFDYWGQGTLVTVSS
VL: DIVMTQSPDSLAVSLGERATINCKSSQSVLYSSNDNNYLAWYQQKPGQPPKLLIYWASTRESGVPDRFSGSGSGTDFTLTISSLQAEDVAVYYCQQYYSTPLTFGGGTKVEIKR
% Inhibition, BRE-luc reporter, 2 nM hBMP7 [1]: 70% | IC50 [M], BRE-luc reporter, 2 nM hBMP7 [1]: 7.3e-10 M | 900 nM or 100 nM Ag Bound (RU) [2]: 57 RU | Kd [2]: 8.27 nM | koff [2]: 0.000937 s⁻¹ | kon [2]: 113000 M⁻¹ s⁻¹ | t½ [2]: 12 min | 100 nM Ag Bound (RU) [3]: 188 RU | Kd [3]: 0.767 nM | koff [3]: 0.000161 s⁻¹ | kon [3]: 210000 M⁻¹ s⁻¹ | t½ [3]: 72 min | 900 nM or 100 nM Ag Bound (RU) [7]: 2 RU | binding result [7]: no binding (tested: 900 nM or 100 nM) | 900 nM or 100 nM Ag Bound (RU) [4]: 68 RU | Kd [4]: 25 nM | koff [4]: 0.00456 s⁻¹ | kon [4]: 182000 M⁻¹ s⁻¹ | t½ [4]: 2.5 min | 100 nM Ag Bound (RU) [5]: 212 RU | Kd [5]: 1.53 nM | koff [5]: 0.000521 s⁻¹ | kon [5]: 340000 M⁻¹ s⁻¹ | t½ [5]: 22 min | 900 nM or 100 nM Ag Bound (RU) [8]: 2 RU | MFI - Normalized to Unstained Control [6]: 1900 fold

B6: mAb29256 (antibody, human IgG4 S228P, kappa, V domains shown)
VH: EVQLVESGGNLVQPGGSLRLSCAASGFTFSNYAMSWVRQAPGKGLEWVSGITGNGVNTYYSVSVKGRFTISRDNSKNTLFLEMNSLRAEDTAIYYCVKERGHSWFGDWFDPWGQGTLVTVSS
VL: DIQMTQSPSSLSASVGDRVTITCRSSQSVISYLNWYQQKPGKAPKLLIFGASSLISGVPSRFSGSGSGTDFTLTIVSLQPEDFAVYFCQQNYLPPLTFGGGTKVEIKR
notes: also called mAb29256P
900 nM or 100 nM Ag Bound (RU) [2]: -2 RU | 100 nM Ag Bound (RU) [3]: -1 RU | 900 nM or 100 nM Ag Bound (RU) [7]: -3 RU | 900 nM or 100 nM Ag Bound (RU) [4]: 0 RU | 100 nM Ag Bound (RU) [5]: 3 RU | 900 nM or 100 nM Ag Bound (RU) [8]: 0 RU | MFI - Normalized to Unstained Control [6]: 3 fold

Continued, values first:

% Inhibition, BRE-luc reporter, 2 nM hBMP7 [1]: 93% | IC50 [M], BRE-luc reporter, 2 nM hBMP7 [1]: 1.9e-09 M | 900 nM or 100 nM Ag Bound (RU) [2]: 44 RU | Kd [2]: 109 nM | koff [2]: 0.00679 s⁻¹ | kon [2]: 62100 M⁻¹ s⁻¹ | t½ [2]: 1.7 min | 100 nM Ag Bound (RU) [3]: 178 RU | Kd [3]: 5.43 nM | koff [3]: 0.00062 s⁻¹ | kon [3]: 114000 M⁻¹ s⁻¹ | t½ [3]: 19 min | 900 nM or 100 nM Ag Bound (RU) [4]: 38 RU | Kd [4]: 191 nM | koff [4]: 0.0299 s⁻¹ | kon [4]: 156000 M⁻¹ s⁻¹ | t½ [4]: 0.39 min | 100 nM Ag Bound (RU) [5]: 205 RU | Kd [5]: 3.88 nM | koff [5]: 0.000911 s⁻¹ | kon [5]: 235000 M⁻¹ s⁻¹ | t½ [5]: 13 min | MFI - Normalized to Unstained Control [6]: 1640 fold
B1: mAb29266 (antibody, human IgG4 S228P, kappa, V domains shown)
VH: QVQLVESGGGVVQPGRSLRLSCEVSGFTFSNYGMHWVRQAPGKGLEWVAVVSYDGSNKYYTDSVKGRFTISRDNSKNTLSLQMNSLRAEDTAVYYCAKDRGITGTSGGVFDIWGQGTMVTVSS
VL: AIRMTQSPSSFSATTGDRVTITCRASQGISSHLAWYQQKPGKAPKFLIYVASTLQSGVPSRFSGSGSGTDFTLTISSLQSEDFATYYCQQYYSYPPTFGQGTKVEIKR

900 nM or 100 nM Ag Bound (RU) [2]: 0 RU | 900 nM or 100 nM Ag Bound (RU) [7]: -1 RU | 900 nM or 100 nM Ag Bound (RU) [4]: 5 RU | binding result [4]: no binding (tested: 900 nM or 100 nM) | 900 nM or 100 nM Ag Bound (RU) [8]: 2 RU | MFI - Normalized to Unstained Control [6]: 2 fold
B4: mAb29261 (antibody, human IgG4 S228P, kappa, V domains shown)
VH: B6 VH with V56I, L79V, E82Q
VL: B3 VL with F36Y
